Measurements published in paper PMC12520519, “RESP2: An Uncertainty Aware Multi‐Target Multi‐Property Optimization AI Pipeline for Antibody Discovery” (Advanced Science, 2025).

Molecular target: T1, receptor binding domain (RBD) of the SARS-CoV-2 spike protein, Delta variant (SARS-CoV-2, Delta (B.1.617.2), strain)
T1 construct: also called Delta RBD; source: bought: Acro Biosystems
Test: flow cytometry on cells
Settings: one partner purified

B1: Delta-6 scFv (scFv, V domains shown)
VH: EVQLLESGGGLVQPGGTLRLSCAASGFIVSSNYMSWVRQAPGKGLEWVSLVYPGGSTYYADSVKGRFTVSRDNSKNTLYLQMNSLRAEDMAVYYCARDLPSGVDAVDAFDIWGQGTMVTVSS
VL: DIRVTQSPSSLSASVGDRVSITCRASQIISGYLNWYQQKPGSAPQLLIYASSSLQSGVPPRFSGSRSGTEFTLTISSLQPEDFATYYCQQTYSIPFTFGPGTKVDIK
notes: also called WT Delta-6 scFv; starting clone
Kd: 1.3 nM
